Source: publication PMC7481185

Molecular target: enolase (AP-MS) (Arabidopsis thaliana) (UniProt P25696)
UniProt P25696, sequence (P25696 whole entry): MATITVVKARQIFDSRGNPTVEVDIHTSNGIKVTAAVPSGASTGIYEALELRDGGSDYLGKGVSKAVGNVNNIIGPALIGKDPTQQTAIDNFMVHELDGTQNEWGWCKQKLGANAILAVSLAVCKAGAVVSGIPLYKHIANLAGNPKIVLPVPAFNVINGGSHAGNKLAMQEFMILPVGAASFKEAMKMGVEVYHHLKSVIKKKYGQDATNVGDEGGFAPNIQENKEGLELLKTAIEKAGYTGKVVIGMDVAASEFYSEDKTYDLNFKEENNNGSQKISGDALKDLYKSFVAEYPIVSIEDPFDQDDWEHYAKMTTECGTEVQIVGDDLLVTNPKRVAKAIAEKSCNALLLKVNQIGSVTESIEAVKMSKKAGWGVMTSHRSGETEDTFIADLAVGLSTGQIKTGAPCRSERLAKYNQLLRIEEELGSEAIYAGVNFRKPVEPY

efficiency (Kcat/KM) of the conversion of 3PGA to pyruvate, NADH-coupled assay: isolated mitochondria (complex) against total extra-plastidial extract (free enzymes): 19 times
Substance: phosphoglycerate mutase 1 (AP-MS) (enzyme)
